Measured values reported in patent US20070020269A1 (published 2007).

Key:
p21-D3 = target: T1, p21-D3 (UniProt P38936 60-164); test: co-immunoprecipitation (anti-myc IP, anti-flag blot), co-transfected 293T cells
T1 construct: not shown: myc-tag from pcDNA3 vector
Description: (§1) In order to determine the interacting regions of RX50 and p21, the 293T cells were co-transfected with RX50 and p21, RX50 and p21-D1, RX50 and p21-D2, RX50 and p21-D3, RX50 and p21-C, RX50 and p21-N, respectively. The transfected cells were allowed to grow 24 hrs before lysis. The supernatant was collected by centrifugation. The […] were subjected to immunoprecipitation with anti-myc antibody and Protein G. The product of co-immunoprecipitation was electrophoresised on SDS-PAGE, transferred onto a nitro cellulose membrane, and then subjected to immunoblot with a enzyme-labeled anti-flag antibody. […] It was inferred that the region of p21 interacting with RX50 was located between amino acid residue 40 to 60 of p21.

p21-C = target: T2, p21-C (UniProt P38936 91-164); test: as above
T2 construct: not shown: myc-tag from pcDNA3 vector
T2 sequence (P38936 91-164): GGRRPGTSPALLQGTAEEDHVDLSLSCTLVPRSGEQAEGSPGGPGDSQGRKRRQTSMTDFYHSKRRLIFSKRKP
Description: as §1

T1 sequence (P38936 60-164): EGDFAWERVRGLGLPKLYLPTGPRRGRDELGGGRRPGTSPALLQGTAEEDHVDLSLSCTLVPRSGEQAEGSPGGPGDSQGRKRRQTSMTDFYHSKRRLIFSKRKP

B1: Flag-RX50 (enzyme)
chain: MHGYFGCNAAAEPGYSAFVGTPQICVTKFSTRNCQGMDSVIKPLDTIPEDKKVRVQRTQSTFDPFEKPANQVKRVHSENNACINFKTSSTGKESPKVRRHSSPSSPTSPKFGKADSYEKLEKLGEGSYAYVYKGKSKVNGKLVALKVIRLQEEEGTPFTAIREASIIKGLKHANIVLLHDIIHTKETLTLVFEYYHTDLCQYMDKHPGGLHPDNVKLFLFQLLRGLSYIHQRYILHRDLKPGNLLISDTGELKLADFGLAKAKSVPSHTTSNEVVYLWYRPPDVLLGSTEYSTCLDMWGVGCIFVEMIQGVAAFPGMKDIQDQLERIFLVLGTPNEDTWPGVHSLPHFKPERFTLYSSKNLRQAWNKLSYVNHAEDLASKLLQCSPKNRLSAQAALSHEYFSDLPPRLWELTDMSSIFTVPNVRLQPEAGESMRAFGKNNSYGKSLSNSKH
notes: Expressed in transfected 293T cells; also called RX50 protein; not shown: N-terminal flag-tag from modified pcDNA3.1
B1: no binding (p21-D3); no binding (p21-C).
